PMC8593141

Target: mouse Kv4.2 channel with GFP fused to the C-terminus (Kv4.2g) (mouse) (UniProt Q9Z0V2)
Test: co-IP; anti-GFP IP (Pierce Classic Magnetic IP/Co-IP kit, overnight 4°C, lysis buffer with 20 mM NEM and protease inhibitors) from lysates (0.5 mg protein) of HEK cells expressing Kv4.2g + HA-KChIP2a + HA-DPP10c, with or without co-transfected SUMO2 + Ubc9; blot for α-adaptin, stripped and re-probed for Kv4.2g; OD α-adaptin ÷ OD Kv4.2g

Sequence of UniProt Q9Z0V2 (Q9Z0V2 whole entry, the tested form may be a part): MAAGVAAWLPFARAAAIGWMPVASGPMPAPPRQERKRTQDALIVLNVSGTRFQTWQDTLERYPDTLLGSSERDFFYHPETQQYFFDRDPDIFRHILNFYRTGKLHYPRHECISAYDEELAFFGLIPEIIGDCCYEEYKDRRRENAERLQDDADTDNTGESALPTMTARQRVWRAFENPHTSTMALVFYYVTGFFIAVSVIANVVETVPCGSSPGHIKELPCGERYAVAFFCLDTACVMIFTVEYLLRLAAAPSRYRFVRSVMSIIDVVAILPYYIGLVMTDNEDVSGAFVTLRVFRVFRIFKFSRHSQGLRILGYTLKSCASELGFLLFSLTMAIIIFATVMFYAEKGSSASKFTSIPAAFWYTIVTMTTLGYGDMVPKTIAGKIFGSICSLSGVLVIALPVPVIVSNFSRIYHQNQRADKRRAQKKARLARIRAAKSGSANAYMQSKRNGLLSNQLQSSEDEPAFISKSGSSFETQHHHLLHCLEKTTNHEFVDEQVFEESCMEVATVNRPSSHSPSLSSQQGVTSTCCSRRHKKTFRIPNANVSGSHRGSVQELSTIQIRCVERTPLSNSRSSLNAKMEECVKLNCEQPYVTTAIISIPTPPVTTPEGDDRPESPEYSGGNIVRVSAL

Q: What does the source list for “α-adaptin subunit of adaptor protein 2 complex (AP2) (from UniProt O95782 1-977) (natural protein)”?
A: OD α-adaptin ÷ OD Kv4.2g in the anti-GFP IP (control, without SUMO2 + Ubc9): 0.02; OD α-adaptin ÷ OD Kv4.2g in the anti-GFP IP (with co-expressed SUMO2 + Ubc9): 0.02
